Assay results reported in patent publication US20160347844A1 (Dana-Farber, published 2016).
Each block holds one binder with its values, some of them ahead of it.

B1: mPD-L2-hIgG (R&D) (Fc fusion, mouse, UniProt Q9WUL5 20-219, looked up)
chain: LFTVTAPKEVYTVDVGSSVSLECDFDRRECTELEGIRASLQKVENDTSLQSERATLLEEQLPLGKALFHIPSVQVRDSGQYRCLVICGAAWDYKYLTVKVKASYMRIDTRILEVPGTGEVQLTCQARGYPLAEVSWQNVSVPANTSHIRTPEGLYQVTSVLRLKPQPSRNFSCMFWNAHMKELTSAIIDPLSRMEPKVPR
notes: The text of the result says only 'PD-L2-Ig'; also called PD-L2-Ig; mPD-L2-Ig; not shown: human IgG part of the bought fusion protein

Assays:
[1] = biological target: T1, recombinant mRGMb-HIS (R&D) (mouse, UniProt Q7TQ33 49-415, limits assumed); assay: ELISA, PD-L2-Ig captured through mRGMb-HIS on BMP-2/4-coated plate, anti-hIgG-HRP
T1 construct: Bought (R&D); also called monomeric mRGMb-HIS; not shown: HIS tag
T1 sequence: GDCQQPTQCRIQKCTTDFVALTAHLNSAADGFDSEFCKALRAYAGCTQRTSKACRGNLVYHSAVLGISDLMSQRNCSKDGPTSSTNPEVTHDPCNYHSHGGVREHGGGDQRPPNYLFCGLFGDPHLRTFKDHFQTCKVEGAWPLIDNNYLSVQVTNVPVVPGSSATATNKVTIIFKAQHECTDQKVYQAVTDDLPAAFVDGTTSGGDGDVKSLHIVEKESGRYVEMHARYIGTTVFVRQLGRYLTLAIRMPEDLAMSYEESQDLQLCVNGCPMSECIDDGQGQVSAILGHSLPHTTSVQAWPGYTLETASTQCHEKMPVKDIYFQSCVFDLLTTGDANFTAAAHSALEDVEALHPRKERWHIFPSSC
Description: (§1) To determine if RGMb binds PD-L2 and BMP-2/4 simultaneously, 96-well ELISA plates were coated with BMP-2/4 as above. mPD-L2-hIgG1/IgA, mPD-L2-hIgG (R&D), mPD-L1-hIgG (R&D) or control-Ig fusion proteins at 10 µg/ml were preincubated with 10 μg/ml mRGMb-HIS (R&D) or buffer alone for 15 min. at room temperature (RT), then added to the plates and incubated for 1h at 37° C. Alternatively, 10 μg/ml mRGMb-HIS (R&D) or buffer alone was added first to the plates and incubated for 1h at 37° C. After wash, mPD-L2-Ig or control-Ig fusion proteins were added and incubated for 1 h at 37° C. Fab₂ goat anti-hIgG-HRP (Jackson ImmunoResearch Laboratories) at 1:10000 was used for detection.

[2] = biological target: T1, recombinant mRGMb-HIS (R&D); assay: ELISA, BMP-2-coated plate, mRGMb-HIS plus PD-L2-Ig, anti-hIgG-HRP
Description: as §1

mPD-L2-hIgG (R&D) [3] = biological target: B1; assay: ELISA, PD-L2-Ig added to BMP-2-coated plate without RGMb, anti-hIgG-HRP
Description: as §1

[4] = biological target: T2, mouse RGMb on mRGMb transfected 300 cells (mouse, UniProt Q7TQ33 49-415); assay: cell conjugation assay / flow cytometry / ELISA of FIG. 1
T2 construct: also called 300-mRGMb cells; DRAGON
T2 sequence: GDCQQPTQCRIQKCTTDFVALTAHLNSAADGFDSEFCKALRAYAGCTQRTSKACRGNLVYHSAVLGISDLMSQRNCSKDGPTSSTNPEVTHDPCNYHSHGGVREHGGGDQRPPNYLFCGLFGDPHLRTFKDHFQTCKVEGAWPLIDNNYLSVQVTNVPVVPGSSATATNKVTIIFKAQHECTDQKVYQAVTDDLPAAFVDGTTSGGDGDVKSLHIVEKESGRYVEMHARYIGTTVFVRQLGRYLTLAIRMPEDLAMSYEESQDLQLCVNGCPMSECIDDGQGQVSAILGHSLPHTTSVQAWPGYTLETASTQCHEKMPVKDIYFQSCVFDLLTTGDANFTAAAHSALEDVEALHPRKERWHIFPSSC

[5] = biological target: T1, recombinant mRGMb-HIS (R&D); assay: ELISA, BMP-4-coated plate, mRGMb-HIS plus PD-L2-Ig, anti-hIgG-HRP
From the text: (§2) FIG. 1 includes nine panels, identified as panels (A), (B), (C), (D), (E), (F), (G), (H), and (I), which show the blocking capacities of RGMb and PD-L2 mAbs and a model for RGMb, PD-L2, Neogenein, BMP, and BMP-receptor interactions. Panels A-C show the capacities of RGMb mAbs and PD-L2 mAbs to block RGMb binding to PD-L2 or to block PD-1 to PD-L2, as determined by cell conjugation assay. […] Binding of mRGMb-HIS was detected by anti-penta-HIS-HRP. […] Binding of Ig fusion proteins was detected with anti-hIgG-HRP. Similar results were also seen for BMP-2. […] Data shown in Panels 1A-1C and 1F-1H are representative of 2 or more independent experiments.
as §1

mPD-L2-hIgG (R&D) [6] = biological target: B1; assay: ELISA, PD-L2-Ig added to BMP-4-coated plate without RGMb, anti-hIgG-HRP (FIG. 1E)
From the text: as §2, §1

Binder: B1
binding result [1]: binds

binding result [2]: binds | binding result (mPD-L2-hIgG (R&D) [3]): no binding
B2: recombinant mouse BMP-2 (GIBCO) (ligand)
chain: QAKHKQRKRLKSSCKRHPLYVDFSDVGWNDWIVAPPGYHAFYCHGECPFPLADHLNSTNHAIVQTLVNSVNSKIPKACCVPTELSAISMLYLDENEKVVLKNYQDMVVEGCGCR
notes: Bought; also called mBMP-2

binding result [4]: binds
B3: mouse PD-L2 on mPD-L2 transfected 300 cells (ligand, UniProt Q9WUL5 20-247, looked up)
chain: LFTVTAPKEVYTVDVGSSVSLECDFDRRECTELEGIRASLQKVENDTSLQSERATLLEEQLPLGKALFHIPSVQVRDSGQYRCLVICGAAWDYKYLTVKVKASYMRIDTRILEVPGTGEVQLTCQARGYPLAEVSWQNVSVPANTSHIRTPEGLYQVTSVLRLKPQPSRNFSCMFWNAHMKELTSAIIDPLSRMEPKVPRTWPLHVFIPACTIALIFLAIVIIQRKRI
notes: whole, on cells; also called 300-mPD-L2

binding result [5]: binds | binding result (mPD-L2-hIgG (R&D) [6]): no binding
B4: recombinant mouse BMP-4 (R&D) (ligand)
chain: SPKHHPQRSRKKNKNCRRHSLYVDFSDVGWNDWIVAPPGYQAFYCHGDCPFPLADHLNSTNHAIVQTLVNSVNSSIPKACCVPTELSAISMLYLDEYDKVVLKNYQEMVVEGCGCR
notes: Bought; also called mBMP-4
